# From patent US7344852 (Takeda / Millennium, dated 2008)
# Target: the molecule itself
# Experiment: X-ray crystal structure of apo DPPIV (self-association, homodimer)
# Method: The structure of DPPIV was solved by a combination of heavy-atom derivatives and Seleno-Methionine (Se-Met) phasing in conjunction with non-crystallographic averaging. Heavy atom derivatives were obtained by soaking native DPPIV crystals in heavy atom solutions made using the crystallization solution. The concentration of heavy atom derivative and time of soaking varied between 0.5 mM to 10 mM and 1 to 15 days, respectively. An extensive array of heavy atom derivatives were individually soaked into DPPIV crystals and analyzed. Two heavy atom derivatives were used to determine the phases: di-m-iodobis (ethylene-diamine)-di-platinum (II) nitrate (PIP) and ethyl mercuric thiosalicylic acid sodium salt (EMTS). Data from crystals of apo DPPIV, Se-Met-DPPIV, PIP-DPPIV and EMTS-DPPIV were collected from cryocooled crystals (100K) at the Stanford Synchrotron Radiation Laboratory (SSRL) beam lines 9-1, 9-2 and 11-1 and the Advanced Light Source (ALS) beam lines 5.0.2 and 5.0.3 both using an ADSC Quantum CCD detector. […] Data were collected and integrated to 2.3 Å with MOSFLM (or HKL2000) and scaled with SCALA (or Scalepack) (CCP4 Study Weekend, Eds. Sawyer, L., Isaacs, N. & Bailey, S. 56-62, SERC Daresbury Laboratory, England, 1993).
# Crystals were obtained after an extensive and broad screen of conditions, followed by optimization. […]
protein,measurement,value
"recombinant human dipeptidyl peptidase IV (DPPIV), residues 39-766 of SEQ ID NO:1 with part of a gp67 signal sequence and a 6x-histidine tag (SEQ ID NO:3) (enzyme, glycosylated; four or five residues per chain carry covalently linked sugar molecules (NAG), positions not given, Secreted from baculovirus-infected insect cells; crystallised as apo protein; The asymmetric unit holds four copies that form two dimers (A with B, C with D); also called DPP4; CD26) ADPGGSHHHHHHSRKTYTLTDYLKNTYRLKLYSLRWISDHEYLYKQENNILVFNAEYGNSSVFLENSTFDEFGHSINDYSISPDGQFILLEYNYVKQWRHSYTASYDIYDLNKRQLITEERIPNNTQWVTWSPVGHKLAYVWNNDIYVKIEPNLPSYRITWTGKEDIIYNGITDWVYEEEVFSAYSALWWSPNGTFLAYAQFNDTEVPLIEYSFYSDESLQYPKTVRVPYPKAGAVNPTVKFFVVNTDSLSSVTNATSIQITAPASMLIGDHYLCDVTWATQERISLQWLRRIQNYSVMDICDYDESSGRWNCLVARQHIEMSTTGWVGRFRPSEPHFTLDGNSFYKIISNEEGYRHICYFQIDKKDCTFITKGTWEVIGIEALTSDYLYYISNEYKGMPGGRNLYKIQLSDYTKVTCLSCELNPERCQYYSVSFSKEAKYYQLRCSGPGLPLYTLHSSVNDKGLRVLEDNSALDKMLQNVQMPSKKLDFIILNETKFWYQMILPPHFDKSKKYPLLLDVYAGPCSQKADTVFRLNWATYLASTENIIVASFDGRGSGYQGDKIMHAINRRLGTFEVEDQIEAARQFSKMGFVDNKRIAIWGWSYGGYVTSMVLGSGSGVFKCGIAVAPVSRWEYYDSVYTERYMGLPTPEDNLDHYRNSTVMSRAENFKQVEYLLIHGTADDNVHFQQSAQISKALVDVGVDFQAMWYTDEDHGIASSTAHQHIYTHMSHFIKQCFSLP",binding result,binds
